Assay results taken from PMC12663243 (Scientific Reports, 2025).

Tests used:
[1] = molecular target: human somatostatin receptor 2 (SSTR2), PRESTO-Tango construct (human) (UniProt P30874)
[2] = molecular target: human somatostatin receptor 1 (SSTR1), PRESTO-Tango construct (human) (UniProt P30872)
[3] = molecular target: human somatostatin receptor 4 (SSTR4), PRESTO-Tango construct (human) (UniProt P31391)
human somatostatin receptor 4 (SSTR4), PRESTO-Tango construct (human), sequence (P31391 whole entry): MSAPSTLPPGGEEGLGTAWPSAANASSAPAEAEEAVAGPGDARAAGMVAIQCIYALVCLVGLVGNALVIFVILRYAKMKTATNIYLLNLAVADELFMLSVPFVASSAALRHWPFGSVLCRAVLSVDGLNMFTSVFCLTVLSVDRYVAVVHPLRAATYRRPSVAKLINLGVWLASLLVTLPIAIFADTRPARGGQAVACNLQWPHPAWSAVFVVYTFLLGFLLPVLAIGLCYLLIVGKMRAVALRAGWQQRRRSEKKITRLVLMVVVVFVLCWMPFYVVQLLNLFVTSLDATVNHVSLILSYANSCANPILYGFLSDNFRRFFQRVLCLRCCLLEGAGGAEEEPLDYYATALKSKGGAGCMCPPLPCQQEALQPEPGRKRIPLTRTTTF

human somatostatin receptor 2 (SSTR2), PRESTO-Tango construct (human), sequence (P30874 whole entry): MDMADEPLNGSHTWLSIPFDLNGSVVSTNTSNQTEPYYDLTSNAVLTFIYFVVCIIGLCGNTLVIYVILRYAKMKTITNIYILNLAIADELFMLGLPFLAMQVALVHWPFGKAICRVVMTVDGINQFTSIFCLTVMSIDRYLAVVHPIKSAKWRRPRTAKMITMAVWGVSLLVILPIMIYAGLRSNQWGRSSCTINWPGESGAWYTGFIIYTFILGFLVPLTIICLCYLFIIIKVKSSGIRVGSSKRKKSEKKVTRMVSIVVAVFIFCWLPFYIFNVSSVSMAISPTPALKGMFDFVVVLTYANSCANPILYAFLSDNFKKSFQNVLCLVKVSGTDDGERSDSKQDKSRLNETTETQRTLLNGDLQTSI
human somatostatin receptor 1 (SSTR1), PRESTO-Tango construct (human), sequence (P30872 whole entry): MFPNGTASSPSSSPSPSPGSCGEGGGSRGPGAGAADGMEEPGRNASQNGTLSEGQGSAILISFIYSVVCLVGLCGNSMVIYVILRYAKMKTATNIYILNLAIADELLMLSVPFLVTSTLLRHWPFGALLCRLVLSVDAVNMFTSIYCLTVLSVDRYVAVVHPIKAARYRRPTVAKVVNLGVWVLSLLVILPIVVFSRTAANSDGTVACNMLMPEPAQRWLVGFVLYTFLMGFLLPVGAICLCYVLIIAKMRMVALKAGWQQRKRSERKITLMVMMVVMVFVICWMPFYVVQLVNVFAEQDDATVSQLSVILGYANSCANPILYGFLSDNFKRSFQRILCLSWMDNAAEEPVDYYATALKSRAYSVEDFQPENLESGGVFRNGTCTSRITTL

consomatin Pr1 (peptide)
PRESTO-Tango β-arrestin recruitment assay (HTLA cells), EC50 [1]: 41 nM
PRESTO-Tango β-arrestin recruitment assay (HTLA cells), EC50 [2]: 130 nM

consomatin Fj2 (peptide)
PRESTO-Tango β-arrestin recruitment assay (HTLA cells), EC50 [3]: 2000 nM
PRESTO-Tango β-arrestin recruitment assay (HTLA cells), EC50 [1]: 200 nM
